From patent US20220031822A1 (Janssen / Centocor, published 2022)
Substitutions are numbered along the chain they refer to. One block for each binder: values may come before it.

Target: T1, human BCMA (B cell maturation antigen) (human, UniProt Q02223 1-184)
T1 construct: whole, on cells; also called hBCMA; TNFRSF17
T1 sequence (looked up): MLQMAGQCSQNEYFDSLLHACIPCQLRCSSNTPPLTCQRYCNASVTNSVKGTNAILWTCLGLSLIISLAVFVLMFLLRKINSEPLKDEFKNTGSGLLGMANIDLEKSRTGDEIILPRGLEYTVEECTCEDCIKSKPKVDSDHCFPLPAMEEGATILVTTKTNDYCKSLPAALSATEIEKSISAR
Experiment: flow cytometry, FN3 domain titration on HEK293F cells transiently expressing human BCMA, anti-His Alexa-488 detection, PRISM one-site specific binding fit
Design: Bmax: unit not given here
Protocol: 50 uL secondary antibody in FACS buffer was added to the wells. Anti-His mAb was added at a 1/100 dilution to all of the wells except for the FACS buffer only negative control wells. The plates were incubated on ice for 1 hr. Afterwards, cells were collected and combined from two wells from all four plates to check cell count and viability using Trypan blue on the Vi-Cell system. The cell count was about 67,500/well at 96.6% viability. The cell count of the control cells that were kept on ice for comparison was 1×10⁶/mL at 95.1% viability.
After 1 hr of staining, the plates were spun at 1200 rpm for 5 min at 4° C. to pellet the cells. Buffer was discarded by inverting the plates, and 100 uL FACS buffer were added to the wells. The FACS buffer wash was repeated two more times. The plates were spun at 1200 rpm for 5 min at 4° C. to pellet the cells, and buffer was discarded by inverting the plates.
Cells were resuspended in 30 uL Intellicyt buffer (FACS buffer, 0.1% Pluronic Acid, 1 mM EDTA, SytoX Red Live/Dead Stain at a 1:1000 dilution) and mixed gently by vortexing the plates. The plates were kept on ice and read on an Intellicyt plate reader. Cells were gated in the following order: (a) cells, (b) single cells, (c) viable cells. The Geometric Mean of Alexa 488 channel was calculated, and the percentage of viable single cells was calculated.

Bmax: 51400
Kd: 22 nM
B1: A12 BCMA-specific FN3 domain (designed binder)
chain: MLPAPKNLVVSRITEDSARLSWTAPDAAFDSFTIKYIERATWGEAIWLNVPGSERSYDLTGLKPGTEYVVLINGVKGGPESWPLIAHFTT
notes: Detected with an anti-His mAb, so the protein tested carried a His tag

Bmax: 51600
Kd: 520 nM
B2: F01 BCMA-specific FN3 domain (designed binder)
chain: MLPAPKNLVVSRVTEDSARLSWTAPDAAFDSFIIVYRENIETGEAIVLTVPGSERSYDLTGLKPGTEYYVQIAGVKGGNISFPLSAIFTT
notes: as for B1

Bmax: 72600
Kd: 76 nM
B3: G10 BCMA-specific FN3 domain (designed binder)
chain: B2 chain with T23I
notes: as for B1

Bmax: 61200
Kd: 230 nM
B4: D08 BCMA-specific FN3 domain (designed binder)
chain: B2 chain with R12H, G61D
notes: as for B1

Bmax: 60700
Kd: 1.6 nM
B5: G11 BCMA-specific FN3 domain (designed binder)
chain: MLPAPKNLVVSRITEDSARLSWTAPDAAFDSFWIRYVERLVWGEAIHLHVPGSERSYDLTGLKPGTEYVVVISGVKGGWESTPLVAPFTT
notes: as for B1

Bmax: 56700
Kd: 6.5 nM
B6: E02 BCMA-specific FN3 domain (designed binder)
chain: MLPAPKNLVVSRVTEDSARLSWTAPDAAFDSFVIVYSEPDVCGEAIVLTVPGSERSYDLTGLKPGTEYWVRIAGVKGGDFSRPLSAIFTT
notes: as for B1

Bmax: 73600
Kd: 130 nM
B7: E09 BCMA-specific FN3 domain (designed binder)
chain: MLPAPKNLVVSRVTEDSARLSWTAPDAAFDSFRIRYVEVIAWGEAIWLVVPGSERSYDLTGLKPGTEYVVVIDGVKGGKTSIPLIAHFTT
notes: as for B1

Bmax: 60900
Kd: 8.7 nM
B8: B03 BCMA-specific FN3 domain (designed binder)
chain: MLPAPKNLVVSRITEDSARLSWTAPDAAFDSFPIRYIETLIWGEAIWLDVPGSERSYDLTGLKPGTEYTVVIDGVKGGGRSQPLVATFTT
notes: as for B1

Bmax: 57900
Kd: 23 nM
B9: C08 BCMA-specific FN3 domain (designed binder)
chain: B8 chain with D49Y, D73S, G79E, R80S, Q82Y, V85I, T87A
notes: as for B1

Bmax: 57800
Kd: 4.9 nM
B10: D10 BCMA-specific FN3 domain (designed binder)
chain: B8 chain with D49Y, T87S
notes: as for B1

Bmax: 101000
Kd: 3000 nM
B11: A08 BCMA-specific FN3 domain (designed binder)
chain: B8 chain with T69A, D73T, G79R, R80F, Q82S, T87S
notes: as for B1

Bmax: 58200
Kd: 4.2 nM
B12: F11 BCMA-specific FN3 domain (designed binder)
chain: B8 chain with I13V, T69V, G79D, R80H, Q82K
notes: as for B1
